The results in this text go back to PMC4105704 (Cell, 2014).

Data set [1] addresses Hermes79-612 C519S (Musca domestica). Kind of data set: crystal structure.
The target of data set [2] is HermesΔ497-516 (Musca domestica).
Data set [3] has as its target full-length Hermes expressed in Sf9 cells (Musca domestica). The data set is described as follows: SEC. On the technique in general: SEC sorts molecules by how far they enter the pores of the column.
Data set [4] deals with full-length Hermes expressed in budding yeast (Musca domestica). Kind of data set: SEC.
The data set “SEC” deals with the molecule itself. The data set is described as follows: SEC.

One may read the stoichiometry N as a count of units in the complex or per binding partner. On to Hermes79-612 C519S (domain or fragment), for which the stoichiometry N in data set [1] came to 8.

As to HermesΔ497-516 (enzyme), the stoichiometry N in data set [2] stood at 2.

For “full-length Hermes expressed in Sf9 cells (enzyme)”, the stoichiometry N in data set [3] was determined as 8.

As for “full-length Hermes expressed in budding yeast (enzyme)”, the stoichiometry N in data set [4] was 8.

B1: full-length Hermes transposase (E. coli-expressed) (enzyme, Musca domestica, UniProt Q25438 1-612, looked up)
chain: MQKMDNLEVKAKINQGLYKITPRHKGTSFIWNVLADIQKEDDTLVEGWVFCRKCEKVLKYTTRQTSNLCRHKCCASLKQSRELKTVSADCKKEAIEKCAQWVVRDCRPFSAVSGSGFIDMIKFFIKVKAEYGEHVNVEELLPSPITLSRKVTSDAKEKKALISREIKSAVEKDGASATIDLWTDNYIKRNFLGVTLHYHENNELRDLILGLKSLDFERSTAENIYKKLKAIFSQFNVEDLSSIKFVTDRGANVVKSLANNIRINCSSHLLSNVLENSFEETPELNMPILACKNIVKYFKKANLQHRLRSSLKSECPTRWNSTYTMLRSILDNWESVIQILSEAGETQRIVHINKSIIQTMVNILDGFERIFKELQTCSSPSLCFVVPSILKVKEICSPDVGDVADIAKLKVNIIKNVRIIWEENLSIWHYTAFFFYPPALHMQQEKVAQIKEFCLSKMEDLELINRMSSFNELSATQLNQSDSNSHNSIDLTSHSKDISTTSFFFPQLTQNNSREPPVCPSDEFEFYRKEIVILSEDFKVMEWWNLNSKKYPKLSKLALSLLSIPASSAASERTFSLAGNIITEKRNRIGQQTVDSLLFLNSFYKNFCKLDI
With B1, the “stoichiometry N” value in “SEC” was determined as 8.
